Results from doi:10.1101/2023.10.23.563088.

Assays:
[1] = biological target: gramicidin D (the natural mixture of linear gramicidins)
[2] = biological target: gramicidin D (the natural mixture of linear gramicidins); remark: listed apart in the source

## gramicidin D (the natural mixture of linear gramicidins) (peptide)
[1]
  ANTS fluorescence quench rate by Tl+ entering DC22:1PC LUVs through gramicidin channels (GFA), rate relative to control, with remdesivir 1 to 3 μM (no observable effect at 1 μM): 2 fold
[2]
  ANTS fluorescence quench rate by Tl+ entering DC22:1PC LUVs through gramicidin channels (GFA), rate relative to DMSO control, with ivermectin 1 to 10 μM (12-fold at 1 μM): 17 fold
